Laboratory results: the supplement of paper PMC5998384

How the values were obtained:
[1] = test system: HeLa Kyoto; assay: solubility in G1/S (NP-40 vs SDS abundance) (log2 ratio); higher = more soluble; conditions: cell cycle stage: G1/S
[2] = test system: HeLa Kyoto; assay: solubility change mitosis vs G1/S (difference of NP-40 vs SDS log2 ratios) (log2 ratio difference); higher = more soluble in mitosis
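Throughout, for solubility change mitosis vs G1/S (difference of NP-40 vs SDS log2 ratios): synchronized HeLa Kyoto cells (double thymidine block for G1/S, nocodazole release for mitosis), protein amounts in NP-40 versus SDS lysates quantified by mass spectrometry, three biological replicates.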
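Throughout, for solubility in G1/S (NP-40 vs SDS abundance): HeLa Kyoto cells arrested at G1/S by double thymidine block, proteins quantified by TMT10plex mass spectrometry in mild NP-40 versus SDS extracts, three biological replicates.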

| Sequence | solubility in G1/S (log2) [1] | solubility change mitosis (log2) [2] |
| --- | --- | --- |
| MQSESGIVPDFEVGEEFHEEPKTYYELKSQPLKSSSSAEHPGASKPPISSSSMTSRILLRQQLMREQMQEQERREQQQKLQAAQFMQQRVPVSQTPAINVSVPTTLPSATQVPMEVLKVQTHLENPTKYHIQQAQRQQVKQYLSTTLANKHANQVLSLPCPNQPGDHVMPPVPGSSAPNSPMAMLTLNSNCEKEGFYKFEEQNRAESECPGMNTHSRASCMQMDDVIDDIISLESSYNEEILGLMDPALQMANTLPVSGNLIDLYGNQGLPPPGLTISNSCPANLPNIKRELTACIFPTESEARALAKERQKKDNHNLIERRRRFNINDRIKELGTLIPKSNDPDMRWNKGTILKASVDYIRKLQREQQRAKELENRQKKLEHANRHLLLRIQELEMQARAHGLSLIPSTGLCSPDLVNRIIKQEPVLENCSQDLLQHHADLTCTTTLDLTDGTITFNNNLGTGTEANQAYSVPTKMGSKLEDILMDDTLSPVGVTDPLLSSVSPGASKTSSRRSSMSMEETEHTC [MITF] | 0.326 | 0.021 |
| MRAPIPEPKPGDLIEIFRPFYRHWAIYVGDGYVVHLAPPSEVAGAGAASVMSALTDKAIVKKELLYDVAGSDKYQVNNKHDDKYSPLPCSKIIQRAEELVGQEVLYKLTSENCEHFVNELRYGVARSDQVRDVIIAASVAGMGLAAMSLIGVMFSRNKRQKQ [PLA2G16] | 0.0787 | -0.137 |
| MRDRLPDLTACRKNDDGDTVVVVEKDHFMDDFFHQVEEIRNSIDKITQYVEEVKKNHSIILSAPNPEGKIKEELEDLNKEIKKTANKIRAKLKAIEQSFDQDESGNRTSVDLRIRRTQHSVLSRKFVEAMAEYNEAQTLFRERSKGRIQRQLEITGRTTTDDELEEMLESGKPSIFTSDIISDSQITRQALNEIESRHKDIMKLETSIRELHEMFMDMAMFVETQGEMINNIERNVMNATDYVEHAKEETKKAIKYQSKARRKKWIIIAVSVVLVAIIALIIGLSVGK [STX2] | 0.137 | 0.0333 |
| MRDSTGAGNSLVHKRSPLRRNQKTPTSLTKLSLQDGHKAKKPACKFEEGQDVLARWSDGLFYLGTIKKINILKQSCFIIFEDSSKSWVLWKDIQTGATGSGEMVCTICQEEYSEAPNEMVICDKCGQGYHQLCHTPHIDSSVIDSDEKWLCRQCVFATTTKRGGALKKGPNAKALQVMKQTLPYSVADLEWDAGHKTNVQQCYCYCGGPGDWYLKMLQCCKCKQWFHEACVQCLQKPMLFGDRFYTFICSVCSSGPEYLKRLPLQWVDIAHLCLYNLSVIHKKKYFDSELELMTYINENWDRLHPGELADTPKSERYEHVLEALNDYKTMFMSGKEIKKKKHLFGLRIRVPPVPPNVAFKAEKEPEGTSHEFKIKGRKASKPISDSREVSNGIEKKGKKKSVGRPPGPYTRKMIQKTAEPLLDKESISENPTLDLPCSIGRTEGTAHSSNTSDVDFTGASSAKETTSSSISRHYGLSDSRKRTRTGRSWPAAIPHLRRRRGRLPRRALQTQNSEIVKDDEGKEDYQFDELNTEILNNLADQELQLNHLKNSITSYFGAAGRIACGEKYRVLARRVTLDGKVQYLVEWEGATAS [MTF2] | -1.31 | 0.618 |
| MRLRNGTFLTLLLFCLCAFLSLSWYAALSGQKGDVVDVYQREFLALRDRLHAAEQESLKRSKELNLVLDEIKRAVSERQALRDGDGNRTWGRLTEDPRLKPWNGSHRHVLHLPTVFHHLPHLLAKESSLQPAVRVGQGRTGVSVVMGIPSVRREVHSYLTDTLHSLISELSPQEKEDSVIVVLIAETDSQYTSAVTENIKALFPTEIHSGLLEVISPSPHFYPDFSRLRESFGDPKERVRWRTKQNLDYCFLMMYAQSKGIYYVQLEDDIVAKPNYLSTMKNFALQQPSEDWMILEFSQLGFIGKMFKSLDLSLIVEFILMFYRDKPIDWLLDHILWVKVCNPEKDAKHCDRQKANLRIRFKPSLFQHVGTHSSLAGKIQKLKDKDFGKQALRKEHVNPPAEVSTSLKTYQHFTLEKAYLREDFFWAFTPAAGDFIRFRFFQPLRLERFFFRSGNIEHPEDKLFNTSVEVLPFDNPQSDKEALQEGRTATLRYPRSPDGYLQIGSFYKGVAEGEVDPAFGPLEALRLSIQTDSPVWVILSEIFLKKAD [MGAT4B] | 0.0108 | -0.107 |
| MRSFLQQDVNKTKSRLNVLNGLANNMDDLKINTDITGAKEELLDDNNFISDKESGVHKPKDCQTSFQKNNTLTLPEELSKDKSENALSGGQSSLFIHAGAPTVSSENFILPKGAAVNGPVSHSSLTKTSNMNKGSVSLTTGQPVDQPTTESCSTLKVAADLQLSTPQKASQHQVLFLLSDVAHAKNPTHSNKKLPTSASVGCDIQNSVGSNIKSDGTLINQVEVGEDGEDLLVKDDCVNTVTGISSGTDGFRSENDTNWDPQKEFIQFLMTNEETVDKAPPHSKIGLEKKRKRKMDVSKITRYTEDCFSDSNCVPNKSKMQEVDFLEQNEELQAVDSQKYALSKVKPESTDEDLESVDAFQHLIYNPDKCGEESSPVHTSTFLSNTLKKKCEESDSESPATFSTEEPSFYPCTKCNVNFREKKHLHRHMMYHLDGNSHFRHLNVPRPYACRECGRTFRDRNSLLKHMIIHQERRQKLMEEIRELKELQDEGRSARLQCPQCVFGTNCPKTFVQHAKTHEKDKRYYCCEECNFMAVTENELECHRGIAHGAVVKCPMVTSDIAQRKTQKKTFMKDSVVGSSKKSATYICKMCPFTTSAKSVLKKHTEYLHSSSCVDSFGSPLGLDKRKNDILEEPVDSDSTKTLTKQQSTTFPKNSALKQDVKRTFGSTSQSSSFSKIHKRPHRIQKARKSIAQSGVNMCNQNSSPHKNVTIKSSVDQKPKYFHQAAKEKSNAKANSHYLYRHKYENYRMIKKSGESYPVHFKKEEASSLNSLHLFSSSSNSHNNFISDPHKPDAKRPESFKDHRRVAVKRVIKESKKESSVGGEDLDSYPDFLHKMTVVVLQKLNSAEKKDSYETEDESSWDNVELGDYTTQAIEDETYSDINQEHVNLFPLFKSKVEGQEPGENATLSYDQNDGFYFEYYEDTGSNNFLHEIHDPQHLETADASLSKHSSVFHWTDLSLEKKSCPYCPATFETGVGLSNHVRGHLHRAGLSYEARHVVSPEQIATSDKMQHFKRTGTGTPVKRVRKAIEKSETTSEHTCQLCGGWFDTKIGLSNHVRGHLKRLGKTKWDAHKSPICVLNEMMQNEEKYEKILKALNSRRIIPRPFVAQKLASSDDFISQNVIPLEAYRNGLKTEALSVSASEEEGLNFLNEYDETKPELPSGKKNQSLTLIELLKNKRMGEERNSAISPQKIHNQTARKRFVQKCVLPLNEDSPLMYQPQKMDLTMHSALDCKQKKSRSRSGSKKKMLTLPHGADEVYILRCRFCGLVFRGPLSVQEDWIKHLQRHIVNANLPRTGAGMVEVTSLLKKPASITETSFSLLMAEAAS [ZNF644] | -0.00511 | 0.321 |
| MRVDSSADPTMSQEQGPGSSTPPSSPTLLDALLQNLYDFGGTEGETEQKKIIKKRENKKRDVMASAALAAEPSPLPGSLIRGQRKSASSFFKELREERHCAPSGTPTGPEILAAAVPPSSLKNNREQVEVVEFHSNKKRKLTPDHNKNTKQANPSVLERDVDTQEFNLEKARLEVHRFGITGYGKGKERILEQERAIMLGAKPPKKSYVNYKVLQEQIKEKKAAKEEEKRLAQETDIFKKKKRKGQEDRKSKKKSAPSILSNGRIGQVGKFKNGTLILSPVDIKKINSSRVAK [C1ORF131] | -1.24 | 0.969 |
| MSAALLRRGLELLAASEAPRDPPGQAKPRGAPVKRPRKTKAIQAQKLRNSAKGKVPKSALDEYRKRECRDHLRVNLKFLTRTRSTVAESVSQQILRQNRGRKACDRPVAKTKKKKAEGTVFTEEDFQKFQQEYFGS [RPS19BP1] | -0.897 | 0.671 |
| MSDIVEKTLTALPGLFLQNQPGGGPAAAKASFSSRLGSLVRGITALTSKHEEEKLIQQELSSLKATVSAPTTTLKMMKECMVRLIYCEMLGYDASFGYIHAIKLAQQGNLLEKRVGYLAVSLFLHESHELLLLLVNTVVKDLQSTNLVEVCMALTVVSQIFPCEMIPAVLPLIEDKLQHSKEIVRRKAVLALYKFHLIAPNQVQHIHIKFRKALCDRDVGVMAASLHIYLRMIKENSSGYKDLTGSFVTILKQVVGGKLPVEFNYHSVPAPWLQIQLLRILGLLGKDDQRTSELMYDVLDESLRRAELNHNVTYAILFECVHTVYSIYPKSELLEKAAKCIGKFVLSPKINLKYLGLKALTYVIQQDPTLALQHQMTIIECLDHPDPIIKRETLELLYRITNAQNITVIVQKMLEYLHQSKEEYVIVNLVGKIAELAEKYAPDNAWFIQTMNAVFSVGGDVMHPDIPNNFLRLLAEGFDDETEDQQLRLYAVQSYLTLLDMENVFYPQRFLQVMSWVLGEYSYLLDKETPEEVIAKLYKLLMNDSVSSETKAWLIAAVTKLTSQAHSSNTVERLIHEFTISLDTCMRQHAFELKHLHENVELMKSLLPVDRSCEDLVVDASLSFLDGFVAEGLSQGAAPYKPPHQRQEEKLSQEKVLNFEPYGLSFSSSGFTGRQSPAGISLGSDVSGNSAETGLKETNSLKLEGIKKLWGKEGYLPKKESKTGDESGALPVPQESIMENVDQAITKKDQSQVLTQSKEEKEKQLLASSLFVGLGSESTINLLGKADTVSHKFRRKSKVKEAKSGETTSTHNMTCSSFSSLSNVAYEDDYYSNTLHDTGDKELKKFSLTSELLDSESLTELPLVEKFSYCSLSTPSLFANNNMEIFHPPQSTAASVAKESSLASSFLEETTEYIHSNAMEVCNNETISVSSYKIWKDDCLLMVWSVTNKSGLELKSADLEIFPAENFKVTEQPGCCLPVMEAESTKSFQYSVQIEKPFTEGNLTGFISYHMMDTHSAQLEFSVNLSLLDFIRPLKISSDDFGKLWLSFANDVKQNVKMSESQAALPSALKTLQQKLRLHIIEIIGNEGLLACQLLPSIPCLLHCRVHADVLALWFRSSCSTLPDYLLYQCQKVMEGS [AP4E1] | -0.402 | -0.0567 |
| MSEESDSLRTSPSVASLSENELPPPPEPPGYVCSLTEDLVTKAREELQEKPEWRLRDVQALRDMVRKEYPNLSTSLDDAFLLRFLRARKFDYDRALQLLVNYHSCRRSWPEVFNNLKPSALKDVLASGFLTVLPHTDPRGCHVVCIRPDRWIPSNYPITENIRAIYLTLEKLIQSEETQVNGIVILADYKGVSLSKASHFGPFIAKKVIGILQDGFPIRIKAVHVVNEPRIFKGIFAIIKPFLKEKIANRFFLHGSDLNSLHTNLPRSILPKEYGGTAGELDTATWNAVLLASEDDFVKEFCQPVPACDSILGQTLLPEGLTSDAQCDDSLRAVKSQLYSCY [TTPAL] | 0.206 | -0.0202 |
| MSFAESGWRSALRRRGPGTPGPVARPSYSSFTQGDSWGEGEVDEEEGCDQVARDLRAEFSAGAWSEPRKRSVLPPDGNGSPVLPDKRNGIFPAAAGSRAQPRRWPVQVLSILCSLLFAILLAFLLAIAYLIVKELHAENLKNEDDVDTGLLGFWTLLIISLTAGFSCCSFSWTVTYFDSFEPGMFPPTPLSPARFKKLTGHSFHMGYSMAILNGIVAALTVAWCLM [ARL6IP6] | -0.241 | 0.698 |
| MSGEPELIELRELAPAGRAGKGRTRLERANALRIARGTACNPTRQLVPGRGHRFQPAGPATHTWCDLCGDFIWGVVRKGLQCARLSADCKFTCHYRCRALVCLDCCGPRDLGWEPAVERDTNVDEPVEWETPDLSQAEIEQKIKEYNAQINSNLFMSLNKDGSYTGFIKVQLKLVRPVSVPSSKKPPSLQDARRGPGRGTSVRRRTSFYLPKDAVKHLHVLSRTRAREVIEALLRKFLVVDDPRKFALFERAERHGQVYLRKLLDDEQPLRLRLLAGPSDKALSFVLKENDSGEVNWDAFSMPELHNFLRILQREEEEHLRQILQKYSYCRQKIQEALHACPLG [RASSF1] | 0.0141 | 0.0429 |
